The results in this text go back to patent EP2586797A2.

Sequences and labels used below:
B1: Composite human antibody variant VH5/VK3 (antibody, human IgG1, V domains shown)
VH: QVQLVQSGAEVKKPGASVKVSCTASGFNIKDTYIHWVRQARGQRLEWIGRFDPVNVNTRYDSRFRGRVTITSDASTSTAYMELSSLRSEDTAVYYCSRSYYNGRRRFTYWGQGTLVTVSS
VL: DIVMTQSPSSLTASVGDRVTITCKASQSLLSSGNQKNYLTWYQQKPGQPPKLLIYWASIRESGVPDRFSGSGSGTDFTLTISSLQAEDVAVYYCQNDYNYPFTFGQGTKLEIK
B2: Composite human antibody variant VH2/VK3 (antibody, human IgG1, V domains shown)
VH: B1 VH with Q1E, V68A, S77N
VL: B1 VL
B3: Composite human antibody variant VH4/VK3 (antibody, human IgG1, V domains shown)
VH: B1 VH with S77N
VL: B1 VL
B4: Composite human antibody variant VH1/VK1 (antibody, V domains shown)
VH: B1 VH with Q1E, V11L, R41P, V68A, S77N
VL: B1 VL with S9D, A13V, V15L, D17E, V19A, T22N, S69T, D76F
B5: Composite human antibody variant VH3/VK3 (antibody, human IgG1, V domains shown)
VH: B1 VH with V68A, S77N
VL: B1 VL
B6: Composite human antibody variant VH2/VK2 (antibody, human IgG1, V domains shown)
VH: B1 VH with Q1E, V68A, S77N
VL: B1 VL with S69T, D76F
B7: Composite human antibody variant VH1/VK3 (antibody, human IgG1, V domains shown)
VH: B1 VH with Q1E, V11L, R41P, V68A, S77N
VL: B1 VL

Where a chain is given by its changes, count along the chain named.

The target in the assay is Abeta42 beta amyloid peptide (UniProt P05067). Kind of assay: competition ELISA, NS0 supernatant titrated against 0.25 ug/ml biotinylated mouse 6E10 (mouse MDT-2007) on coated beta amyloid; IC50 normalised to mouse 6E10 (=1; <1 improved).
Chain of Abeta42 beta amyloid peptide (P05067 672-713 limits assumed): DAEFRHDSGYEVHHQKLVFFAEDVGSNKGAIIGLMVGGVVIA
In the case of B1, the fold difference in IC50 relative to mouse 6E10 worked out at 1.02 fold.
As for B2, the fold difference in IC50 relative to mouse 6E10 amounted to 0.96 fold.
B3: the fold difference in IC50 relative to mouse 6E10 is 1.36 fold.
Then B4, with 0.78 fold; and B5, with 1.57 fold; and B6, with 1.1 fold.
To B7 belongs 1.93 fold.
